Experimental data reported in paper PMC3195444 (Biochemical Journal, 2011).
Where “and” joins values, the source holds several entries; their conditions need not be identical. Equal entries are not always repeated.

T1: MBP–GID1A (GIBBERELLIC ACID-… DWARF-1A, MBP fusion) (Arabidopsis thaliana, UniProt Q9MAA7 1-345)
T1 sequence: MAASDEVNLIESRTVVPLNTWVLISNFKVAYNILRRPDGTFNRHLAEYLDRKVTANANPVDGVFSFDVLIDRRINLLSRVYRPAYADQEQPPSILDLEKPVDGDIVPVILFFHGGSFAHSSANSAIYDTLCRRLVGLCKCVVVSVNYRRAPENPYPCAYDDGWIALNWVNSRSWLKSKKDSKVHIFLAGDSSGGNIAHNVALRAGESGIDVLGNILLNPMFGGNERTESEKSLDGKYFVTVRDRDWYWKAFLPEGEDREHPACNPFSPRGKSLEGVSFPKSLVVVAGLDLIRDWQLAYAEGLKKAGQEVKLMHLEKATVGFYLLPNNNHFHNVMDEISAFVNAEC

T2: sly1^E138K, Gal4 DNA-binding domain fusion (Arabidopsis thaliana, UniProt Q9STX3 1-151, E138K)
T2 sequence: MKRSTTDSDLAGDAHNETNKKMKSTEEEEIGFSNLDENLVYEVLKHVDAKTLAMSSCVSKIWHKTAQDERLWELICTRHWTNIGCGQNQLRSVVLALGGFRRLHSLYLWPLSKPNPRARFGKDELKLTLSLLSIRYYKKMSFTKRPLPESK

B1: MBP–RGL1^N (RGL1^1–137, N-terminal or DELLA domain of RGL1, MBP fusion) (domain or fragment)
chain: MKREHNHRESSAGEGGSSSMTTVIKEEAAGVDELLVVLGYKVRSSDMADVAHKLEQLEMVLGDGISNLSDETVHYNPSDLSGWVESMLSDLDPTRIQEKPDSEYDLRAIPGSAVYPRDEHVTRRSKRTRIESELSST
B2: RGL1 (REPRESSOR OF GA1-3-LIKE 1), Gal4 activation domain fusion (natural protein)
chain: MKREHNHRESSAGEGGSSSMTTVIKEEAAGVDELLVVLGYKVRSSDMADVAHKLEQLEMVLGDGISNLSDETVHYNPSDLSGWVESMLSDLDPTRIQEKPDSEYDLRAIPGSAVYPRDEHVTRRSKRTRIESELSSTRSVVVLDSQETGVRLVHALLACAEAVQQNNLKLADALVKHVGLLASSQAGAMRKVATYFAEGLARRIYRIYPRDDVALSSFSDTLQIHFYESCPYLKFAHFTANQAILEVFATAEKVHVIDLGLNHGLQWPALIQALALRPNGPPDFRLTGIGYSLTDIQEVGWKLGQLASTIGVNFEFKSIALNNLSDLKPEMLDIRPGLESVAVNSVFELHRLLAHPGSIDKFLSTIKSIRPDIMTVVEQEANHNGTVFLDRFTESLHYYSSLFDSLEGPPSQDRVMSELFLGRQILNLVACEGEDRVERHETLNQWRNRFGLGGFKPVSIGSNAYKQASMLLALYAGADGYNVEENEGCLLLGWQTRPLIATSAWRINRVE

What was measured:
[1] = target: T1, MBP–GID1A (GIBBERELLIC ACID-… DWARF-1A, …); assay: SPR
[2] = target: T2, sly1^E138K, Gal4 DNA-binding domain …; assay: yeast three-hybrid

| Binder | Ka [1] | fold recruitment against the ΔDELLA mutant in the presence of GID1A/GA3 [2] |
| --- | --- | --- |
| B1 | 5.73e+08 M⁻¹ and 3.58e+08 M⁻¹ and 6.49e+08 M⁻¹ | – |
| B2 | – | 4 fold |
